Data on two molecules can be found in publication PMC10602967, “Modulatory role of RNA helicases in MBNL-dependent alternative splicing regulation”.

Series [1] deals with T1, rDDX5 (UniProt P17844 1-614). In words: EMSA; slightly preferred over RNA-ctrl; no defined complex band; Kd only in figure; EMSA: 15 nM RNA, 50 mM NaCl, 50 mM KCl, 50 mM Tris-HCl, 1 mM MgCl2 (pH not stated), 37 C 15 min, 10 ul, 6% native PA gel; Kd by one-site fit with Bmax = 100. The following applies: protein: commercial; label: 5'-biotin; 3'-Cyanine 5; single-stranded. On the technique in general: In EMSA bound probe runs differently from free probe, usually more slowly.

Series [2] addresses T1, rDDX5. In words: EMSA; slightly lower preference than ss(UGCU)4; no defined complex band; Kd only in figure; EMSA: 15 nM RNA, 50 mM NaCl, 50 mM KCl, 50 mM Tris-HCl, 1 mM MgCl2 (pH not stated), 37 C 15 min, 10 ul, 6% native PA gel; Kd by one-site fit with Bmax = 100. The following applies: protein: commercial; label: 5'-biotin; 3'-Cyanine 5; single-stranded.

T1 sequence (P17844 whole entry): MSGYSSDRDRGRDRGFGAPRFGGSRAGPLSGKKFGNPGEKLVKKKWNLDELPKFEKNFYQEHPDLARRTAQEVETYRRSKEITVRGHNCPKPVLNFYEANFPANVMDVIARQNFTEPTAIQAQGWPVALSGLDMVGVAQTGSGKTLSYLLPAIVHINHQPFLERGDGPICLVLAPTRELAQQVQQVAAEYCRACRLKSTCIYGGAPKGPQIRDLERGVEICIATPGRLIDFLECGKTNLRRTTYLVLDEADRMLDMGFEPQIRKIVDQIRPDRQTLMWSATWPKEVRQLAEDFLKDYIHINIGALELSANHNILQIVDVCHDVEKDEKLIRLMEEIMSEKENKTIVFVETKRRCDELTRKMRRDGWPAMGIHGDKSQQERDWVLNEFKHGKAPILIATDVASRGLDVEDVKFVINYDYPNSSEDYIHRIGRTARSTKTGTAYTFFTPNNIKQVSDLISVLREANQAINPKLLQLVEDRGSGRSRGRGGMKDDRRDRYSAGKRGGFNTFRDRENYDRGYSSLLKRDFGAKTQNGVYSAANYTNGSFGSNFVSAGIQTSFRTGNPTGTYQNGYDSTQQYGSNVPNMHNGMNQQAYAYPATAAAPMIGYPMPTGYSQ

B1: RNA-ss(UGCU)4 (ssRNA)
RNA: UUUUUUUUGCUUGCUUGCUUGCUUUUUUUU
With B1, the binding result with rDDX5 [1] is “binds”.

B2: RNA-ctrl (ssRNA)
RNA: UUUUUUUUGUCUGGUCCCUCGUUUUUUUU
For the molecule B2, the binding result with rDDX5 [2] was “binds”.
